Results on six molecules are retold here after article PMC10937111, “Structural basis for intra- and intermolecular interactions on RAD9 subunit of 9-1-1 checkpoint clamp implies functional 9-1-1 regulation by RHINO” (The Journal of Biological Chemistry, 2024).

Assay [1] has as its target T1, FLAG-tagged 9^ΔC-1-1 (9-1-1 ring), wild type (human, UniProt Q99638 1-272; O60671 1-282; O60921 1-280).
T1 construct: RAD9 with the C-tail truncated (RAD9^ΔC), human, residues 1-272, from pFastBac1-FLAG-RAD9^ΔC; RAD1 subunit of 9-1-1; HUS1 subunit of 9-1-1; also called 9^ΔC-1-1 (W); purified 9^ΔC-1-1; copies: + +
T1 sequence (looked up) 1: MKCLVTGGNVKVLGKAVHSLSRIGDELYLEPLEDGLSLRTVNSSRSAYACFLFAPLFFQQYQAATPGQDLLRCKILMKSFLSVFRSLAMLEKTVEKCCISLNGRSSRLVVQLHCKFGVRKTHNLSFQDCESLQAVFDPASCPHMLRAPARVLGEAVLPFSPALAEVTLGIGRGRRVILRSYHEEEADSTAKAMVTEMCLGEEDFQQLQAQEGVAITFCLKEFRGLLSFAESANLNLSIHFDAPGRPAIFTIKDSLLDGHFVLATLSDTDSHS
T1 sequence (looked up) 2: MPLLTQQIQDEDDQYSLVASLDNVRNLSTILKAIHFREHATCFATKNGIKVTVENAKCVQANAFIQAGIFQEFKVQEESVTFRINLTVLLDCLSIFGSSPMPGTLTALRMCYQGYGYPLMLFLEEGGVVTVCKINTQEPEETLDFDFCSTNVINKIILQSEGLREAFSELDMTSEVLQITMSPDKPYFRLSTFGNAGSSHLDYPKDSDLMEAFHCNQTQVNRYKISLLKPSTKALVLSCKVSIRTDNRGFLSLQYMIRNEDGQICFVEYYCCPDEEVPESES
T1 sequence (looked up) 3: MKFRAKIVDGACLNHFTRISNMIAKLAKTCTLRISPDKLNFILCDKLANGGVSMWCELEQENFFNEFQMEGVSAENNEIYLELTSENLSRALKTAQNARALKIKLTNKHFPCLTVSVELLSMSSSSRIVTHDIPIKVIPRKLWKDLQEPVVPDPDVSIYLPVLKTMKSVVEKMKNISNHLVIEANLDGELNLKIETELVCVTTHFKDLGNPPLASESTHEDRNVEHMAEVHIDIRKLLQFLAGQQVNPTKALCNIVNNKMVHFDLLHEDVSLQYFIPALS
As to the kind of experiment: pull-down; GST or GST-fusion proteins from E. coli lysate immobilised on Glutathione-Sepharose 4B beads and washed four times; incubated with purified PCNA, FLAG-tagged 9^ΔC-1-1 (W) or its LVF mutant for 2 h at 4 °C in 25 μl of buffer H (25 mM HEPES-NaOH pH 7.8, 150 mM NaCl, 1 mM EDTA, 10% glycerol, 0.01% NP-40); immunoblotting with anti-RAD1 or anti-PCNA antibody. The settings on record: both partners purified.

Assay [2] deals with T2, recombinant human 9-1-1 ring for crystallization (RAD9 residues 1-270, His-HUS1, RAD1 F64A/M256A/F266A) (human, UniProt Q99638 1-270; O60671 1-282; O60921 2-280, F64A | M256A | F266A).
T2 construct: C-terminal truncated RAD9, human, residues 1-270; RAD1, human, with the triple substitutions F64A/M256A/F266A; HUS1, human; source: E. coli BL21(DE3), co-expressed, purified (HiTrap Heparin, HiTrap Q, HiLoad Superdex200); copies: + +
T2 sequence 1: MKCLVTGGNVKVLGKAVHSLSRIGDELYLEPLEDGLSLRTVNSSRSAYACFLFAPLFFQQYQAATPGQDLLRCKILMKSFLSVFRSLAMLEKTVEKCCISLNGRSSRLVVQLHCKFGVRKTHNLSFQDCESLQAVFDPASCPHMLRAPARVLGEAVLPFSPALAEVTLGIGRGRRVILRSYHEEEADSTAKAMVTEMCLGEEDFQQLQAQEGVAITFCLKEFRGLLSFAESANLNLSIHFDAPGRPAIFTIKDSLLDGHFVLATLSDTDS
T2 sequence 2: T1 sequence (looked up) 2 with F64A, M256A, F266A
T2 sequence 3: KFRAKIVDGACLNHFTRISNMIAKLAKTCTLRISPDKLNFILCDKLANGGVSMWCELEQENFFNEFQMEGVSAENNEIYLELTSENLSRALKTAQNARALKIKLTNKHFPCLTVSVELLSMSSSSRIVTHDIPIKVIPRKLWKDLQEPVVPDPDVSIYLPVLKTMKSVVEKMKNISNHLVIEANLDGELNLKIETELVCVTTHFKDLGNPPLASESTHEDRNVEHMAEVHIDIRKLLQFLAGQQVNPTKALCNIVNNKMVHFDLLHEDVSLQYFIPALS
As to the kind of experiment: crystal structure; 0.13 mM 9-1-1 ring incubated with about 10-fold molar excess of the RHINO peptide at 277 K overnight; vapor diffusion, 0.2 M potassium iodine, 14% PEG 3350, 293 K; 2.81 Å. The conditions noted are these: both partners purified.

Residue numbers refer to the chain shown, from its start. In names and notes the source's numbering stands.

B1: GST-RAD9C15 F361A (peptide, UniProt Q99638 356-370, looked up)
chain: PPPKKARSLFFGSIL
notes: RAD9, human, residues 356-370 of the C-tail, F361A; source: E. coli Rosetta 2(DE3)pLysS, from cell lysate immobilised on Glutathione-Sepharose 4B beads and washed
Regarding B1, the binding result in assay [1] is “binds”.

B2: GST-tagged RAD9 (residues 356-370) (GST-RAD9C15), wild type (peptide, UniProt Q99638 356-370, looked up)
chain: PPPKKFRSLFFGSIL
notes: RAD9, human, residues 356-370 of the C-tail; source: E. coli Rosetta 2(DE3)pLysS, from cell lysate immobilised on Glutathione-Sepharose 4B beads and washed
With B2, the binding result in assay [1] is reported as “binds”.

B3: GST-p21CT FY (F150A/Y151A) (domain or fragment, human, UniProt P38936 87-164, looked up)
chain: DELGGGRRPGTSPALLQGTAEEDHVDLSLSCTLVPRSGEQAEGSPGGPGDSQGRKRRQTSMTDAAHSKRRLIFSKRKP
notes: p21, C-terminal region, residues 87-164, F150A/Y151A in the PIP-box; also called p21CT variant with the F150A/Y151A double substitution in the PIP-box; source: E. coli Rosetta 2(DE3)pLysS, from cell lysate immobilised on Glutathione-Sepharose 4B beads and washed
For B3, the binding result in assay [1] is “binds”.

B4: GST-RAD9C15 F365A (peptide, UniProt Q99638 356-370, looked up)
chain: PPPKKFRSLAFGSIL
notes: RAD9, human, residues 356-370 of the C-tail, F365A; source: E. coli Rosetta 2(DE3)pLysS, from cell lysate immobilised on Glutathione-Sepharose 4B beads and washed
As for B4, the binding result in assay [1] is on record as “binds”.

B5: GST-tagged p21 C-terminal region (residues 87-164) (GST-p21CT), wild type (domain or fragment, human, UniProt P38936 87-164, looked up)
chain: B3 chain with A64F, A65Y
notes: p21, C-terminal region carrying the PIP-box, residues 87-164; also called p21 (W); source: E. coli Rosetta 2(DE3)pLysS, from cell lysate immobilised on Glutathione-Sepharose 4B beads and washed
For B5, the binding result in assay [1] is reported as “binds”.

B6: human RHINO peptide (88-TSKFPHLTFESP-99) (peptide)
peptide: TSKFPHLTFESP
notes: also called RHINO (residues 88-99); source: synthetic peptide (TORAY Research Center, Inc)
B6: in assay [2], the binding result is recorded as “binds”.
